A short description of this data set: soluble on expression in E. coli; label from the status in PepcDB or PDB records.
As to “GPGSMRLLSFSNVPLFLALFPPLPLLSCASVWHTRRHSFSEIFFVGSFIAAPFRCIVSPRVALYRARLRFLAPAACTRALPFAYTGQQGERQIKMITATADAGSAAKAAAAPPARMFDCLDAASKERVTMLLSHYQVLLPVEQASFMQELERYNQEQQTTALERNKAGEVWIRYTNPRLQAVQARDPAYVQRSISHTAASRGSKGDAAPEEATAPCSLEDLVHIRGMFGEPEGVPIRVGKMSLYEKLQQNMRNRRSTACGSLANTTVSSIPTAADAGHGAARVSVPFGPFAEAPAKPAEGKREVGDNASPKTSAQSESGERAVALVCADTFPSHTSSVRPSAPYRNNAYQAVRLAMSSPGYTATTQPTSVAELQTPLDGVKPVLNTTAFPITEEELRDWFDELDVHGRGVLSVEEFQRYMQSLERDLGVPTEYATLELDGAQLAKDGWLSFEAFSYLVLRFVRA”, the “soluble on expression in E. coli” value is listed as “not soluble”.
The result for “RIGIVVAAHGNSTASSMVQVVSQLLNVDNLKAVDMPLDMPPKEALRKIVEAVGEVNEENGVLLLVDMGSLSTFSEEIVRQTGIDVRTVDMVTTPIVLEAARKTALIDTQLETLHESLKNFHGYADIRQSETKQ” reads “soluble”.
For “MKKEIKFSLMYRDMWQSSGKYQPRKDQLERIAPVIVEMGCFARVETNGGAFEQVNLLYGENPNKAVRAFTKPLNEAGIQTHMLDRGLNGLRMFPVPADVRRLMYKVKKAQGVDITRIFDGLNDARNIIPSIKYALEAGMIPQATLCITFSPVHTVEYYSNLADELIAAGAPEICLKDMAGIGRPHFLGQLVKSIKTKHPDVIIEYHGHSGPGFSVASMLEVCENGADIIDVAMEPISWGKVHPDVITIQQMLKDAGFKVPEINMDAYMKARSLTQEFIDDFLGYFMDPSNKETSSLLVGCGLPGGMMGSMMADLKGVHAGINMFLKGKGEPEMTIDQLLVRLFQEVEYVWPRLGYPPLVTPFSQYVKNVALMNVYNMIRGEGRWQAIDQNTWGMILGKSGRLPGKLDPEIIALAKEKGMEFSDADPQQFYPDALDEFRKEMDQNGWEYGPDDEELFELAMHDRQYRDYKSGVAKERFNADLDKAKADRMAKQGYSDEDIKKAKRAGCDPIVAPCSGRLYWEIDTEEQSIAPAIGAEYRTGQPFCYIENQFGYIEKVYCTFTGRITEVVAQGTVVKKGDEIAYLRTAEKEIMWEGANEHIVRVETMPEPRKRITKSAQKN”, the “soluble on expression in E. coli” value is “not soluble”.
As for “GPGSMRRVVITGLGLVSPLAGDVEYSWKRLLEGKSGVRRITEFDVSDLSCQIAARIPVGDGTNGTYNADLHMESKEQRKVDAFIVYAIAAADQALADAEWFPKSDEDQICTGVLIGSGIGGIEGIVEAGYTLRDKGPRRISPFFIPGRLINLASGYVSIKYGLRGPNHSVVTACSTGAHAIGDAARLIALGDADVMLAGGTESPINRISLAGFSACRALSTCRNDDPERASRPYDVDRDGFVMGEGAAIVVLEELEHAKKRGARIYAEIIGYGLSGDAYHITAPSESGEGAQRSMMAALKRAQVNVSELDYINAHGTSTMADVIELAAVERVLGYYAPQVSMSSTKSSIGHLLGAAGAAEAIFCVLAIRDNIAPATLNLENPSIETKIDLVPHKPRERKIDTVLSNSFGFGGTNASLVMRRFSE”, the “soluble on expression in E. coli” value is recorded as “soluble”.
Consider “MGSDKIHHHHHHMGYRTLKSIFHEHNESKMKEEYTKRFNSLASFNTNINIIPMENGKKVNDLEYPLFFMVTKNLSKKQELISINSRKIDRALNSLPYAAREQYFNDLLIDELQSTNEIENVFSTKQEIAHALNNQASEFLKFRGLVDQYKEIELNKKIKVDNVRDIRAIYDKLVSNEINEQDKLDGELFRKNFVGVHDGSTNKYIHVGLQPETKIVEYIGEMLTFLKYFDAPQPFKIMASHYLFEYIHPFYDGNGRVGRFIIAKLLSDYYDNYTALTFSYVINRNKSKYYKAFMTASNHLNCGDLTEFIDTMLELLIAGQERILDELIPKMDATEKLTLYLTSHYKQIDYEFLYLLSMDKLFGNKRNRLTLIDLENILGVGRVKINNTIKKYDNYLVKIKSRPIIYEISDEFLNSIIK”, for which the “soluble on expression in E. coli” value was “not soluble”.
“MRVVVSIGGSVLAPGLDADQVDAHADAINELTDAGCEVGAVVGGGGVARDYIGTARELGANEIELDDIGVDVTRLNARLLIAALGGDAAPSPAEDYEDAGEAMRRGDIAVMGGVVAGQTTDAVSAALAEYTDADLLLYATSVPGVFSADPNEDADAEHFTRMTAGELVDIIADIEMNAGSSAPVDLLAAKLIERSGVRTIVLDGTDPRRIVDAVRFGEHDGTDVIPDGTDNQMTYWADNQELEHHHHHH”: the “soluble on expression in E. coli” value is “not soluble”.
The result for “MERLSPVFATSKSSNMEVEHWMTSLKEVEKVLDSVEPKLTSSGTKWRVVAQHIKDICSDLNQIFNKEDPRYEVVQAGASAAHDFDVRYLDIHKVRTPHEPLEMRHSKGRKHGREIARLLEKIQKYRQEIEEIKKEYKETDKYRERYDHYKVKLDNLEKKNKDQERIERNQQKFKDAEAAYSSVCADLIQKMETVWKKHVSIFAEAASAVWSTQLQYAKALEAAANPIVPYLQQEEQEEEEEEEAASGTQGRVAEKAYHTNEEKVENSFQKNSAIPPSFRTASEQLTEQSKNINNAKNTSETSPAEDIEA” reads “soluble”; that for “MGSDKIHHHHHHMHLSINLLPILSQHQVSFNTDIYCLEKFMFQIDTLIAAKIVDRTMKIIGHNINVMNAQAVILGSGDIDRIGTVHEGALLAISQNRNVEISQAIASNLHGVKPGLNLPLHYHGQVVGVIGITGEPDTLSHYGELLKMTAEMIVEQANLQEQLQWQNRQTEEFISQLIHANEQDLPSLQQWALQLGIDLSVPRVAAIIELDSNNPLYQQDNQALKQVLYLLQNPVRDNLIAMTSLTQLVILKPAFLDGKQFDPELENQRINKLLKRLPANMQLSLHISLGHYFGGELGISYSYRTAKETLDIGKKLHPTKTKYLYQDYSLQVLLSGLRHHWRGNALAGPYLKLIEVDNNQQLQKTLAAYLDHMGDIQACANSLFIHRNTLRYRLDKIQTITNIDLRSFNGLLSLYLGQLIHQPST”, “not soluble”.
The result for “MFAKVHPAEDVKSGNTGSCHDLVRYLEKETGEGQRFFSHTEQDISPERVIMDIDGNKKALGANDAKFFMLSLNPSQSEQMHLIGRKVDDFKELTPQEKKEVFQKLEAFTRSAMDEYALNFGRDNIRGGQDLMYYARVETERSYHPEDEEVKQGIARIGEPKPGLNLHVHVIVSRKSLDGKVKLSPGAKSAGNTWELEGRGTVKRGFSHEGWKVRVQECFNRKFDYQA” reads “not soluble”; that for “MSSIDIVIPNYNYGRFLKGCVESVLGQNIADMRILIIDNASTDDSVAISRSLAAANPRIETSLRARNLGGHASFNAGIDWARADYFAIICADDVLSPGALARAMEALDNNPGAHMAFGRTAFFRDDAEIASGLHSDADGMRLHRGMDFIANICATGRSPVQGPLAVTRTHIQQHAGHYRPALRHTDDVEMWMRLAVLGDIVELDAVQNFTRIHGANQSAILDNVLAWNAEIEAALESFFGNEGALLADAKTLLRRGRASLSDRAYWCALSNLVRRRPGAGALLAQAFRLRPASALLPPISYLMRRPDALHRIRAAIARRLEHHHHHH”, “not soluble”; that for “MAHHHHHHMGTLEAQTQGPGSMQYPPRLGFGTWQAPPEAVQTAVETALMTGYRHIDCAYVYQNEEAIGRAFGKIFKDASSGIKREDVWITSKLWNYNHRPELVREQCKKTMSDLQVDYLDLFLVHWPLAFVRNDVGDLFPKDAEGRAMLEKVPLADTWRAMEQLVEEGLVKHIGVSNYTVPLLADLLNYAKIKPLVNQIEIHPWHPNDATVKFCLDNGIGVTAYSPMGGSYADPRDPSGTQKNVILECKTLKAIADAKGTSPHCVALAWHVKKWNTSMYSVIPKSQTPARIEANFKCTEVQLSDDDMDAINNIHLNKRIRFCDPAIFWKVPLFD”, “soluble”.
The result for “MEKMKNLDGKVALVTGASRGIGRAIAMRLANDGALVAIHYGRNKQAADETIREIESNEGKAFLIEADLNSIDGVKKLVEQLKNELQIRVGTSEIDILVNNAGIGTQGTIENTTEEIFDEIMAVNIKAPFFLIQQTLPLLRAEGRVINISSAEVRLGFTGSIAYGLSKGALNTMTLPLAKHLGERGITVNTIMPGYTKTDINAKLLDDPEIRNFAANSSVFGRIGQVEDIADAVAFLAASDSRWVTGQIIDVSGGFCL” reads “not soluble”; that for “GSGMKETAAAKFERQHMDSPDLGTTLLEQYCHRTTIGNFSGPYTYCNTTLDQIGTCWPQSAPGALVERPCPEYFNGIKYNTTRNAYRECLENGTWASRVNYSHCEPILDDFQRKYDLHY”, “soluble”.

Values taken from the DeepSol protein solubility set.
